Source: PMC10714720

System: T1, QseB (rQseB) (Glaesserella parasuis serovar 5 strain CF7066), ORF:6fe33d28
T1 sequence: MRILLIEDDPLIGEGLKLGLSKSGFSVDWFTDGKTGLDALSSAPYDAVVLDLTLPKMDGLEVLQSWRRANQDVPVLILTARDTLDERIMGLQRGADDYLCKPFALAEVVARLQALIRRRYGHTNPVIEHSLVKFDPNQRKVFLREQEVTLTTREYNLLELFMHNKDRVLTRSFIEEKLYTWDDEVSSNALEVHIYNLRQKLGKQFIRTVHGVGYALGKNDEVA
Assay: EMSA
Settings: 50 mM Tris, 10 mM MgCl2, 0.1 mM DTT

| Sequence | binding |
| --- | --- |
| AAATTGCTCCTAGTGTTTATTAGTAAAAGCATTATTGCTTTGTTGAGTGTATTAAAACAGAGAAATCTTAAGAAAGTCTTAAGATAAAAAAATTTATTTTTAGACAAAATCTAATAAAAAAGCGGCAAGATTCGTAAATCCTACCGCTTAGATCACATTATGAAAAAATTAGAATCTATAGTTTGCCCCAATAA (double strand) [qseB promoter (Cy5.5-qseB)] | binds |
| GAAGAACTTACGCTGAGTTGTTTAAATAGCTCGTTGAGCAAGGTGAATCCTCAGAAGAGTATGTCGAAGTAATGGGGCATATGCAAGTAGAAATAGATTTAGAAATGATCAAAACCTGAATCTGAAATATTATTTTAAATATATAGTCTTAACTGTCTTAGGAAAAGGCAGTAGAGATAGGATGAGATAACAGT (double strand) [capD promoter (Cy5.5-capD)] | binds |
